Measured values from the Human Domainome abundance scans (Beltran et al. 2025).
± gives the uncertainty stated by the source.

B1: Double-stranded RNA-specific adenosine deaminase, residues 296 to 358; numbered along this chain, P55265 (parent)
chain: MAEIKEKICDYLFNVSDSSALNLAKNIGLTKARDINAVLIDMERQGDVYRQGTTPPIWHLTDK

Variants of: B1
Experiment: abundance fitness (aPCA) (normalised: wild type 0, dead -1); higher = more abundant; growth selection in yeast, the domain comes from the species named
Conditions: Homo sapiens
Work on MAEIKEKICDYLFNVSDSSALNLAKNIGLTKARKINAVLIDMERQGDVYRQGTTPPIWHLTDK [D34K] yielded an abundance fitness of -0.518 ± 0.079.
Variant MAEIKEKICDYLFNVSDSSALNLAKNIGLTKARRINAVLIDMERQGDVYRQGTTPPIWHLTDK [D34R] has an abundance fitness of -0.699 ± 0.055.
Variant MAEIKEKICDYLFNVSDSSALNLAKNIGLTKARTINAVLIDMERQGDVYRQGTTPPIWHLTDK [D34T] has an abundance fitness of -0.724 ± 0.11.
Variant MAEIKEKICDYLFNVSDSSALNLAKNIGLTKARHINAVLIDMERQGDVYRQGTTPPIWHLTDK [D34H] has an abundance fitness of -0.578 ± 0.079.
Variant MAEIKEKICDYLFNVSDSSALNLAKNIGLTKARMINAVLIDMERQGDVYRQGTTPPIWHLTDK [D34M] has an abundance fitness of -0.333 ± 0.051.
Work on MAEIKEKICDYLFNVSDSSALNLAKNIGLTKARQINAVLIDMERQGDVYRQGTTPPIWHLTDK [D34Q] yielded an abundance fitness of -0.283 ± 0.073.
In the case of MAEIKEKICDYLFNVSDSSALNLAKNIGLTKARLINAVLIDMERQGDVYRQGTTPPIWHLTDK [D34L], the abundance fitness is reported as -0.444 ± 0.049.
Variant MAEIKEKICDYLFNVSDSSALNLAKNIGLTKARSINAVLIDMERQGDVYRQGTTPPIWHLTDK [D34S] has an abundance fitness of -0.397 ± 0.055.
Work on MAEIKEKICDYLFNVSDSSALNLAKNIGLTKARIINAVLIDMERQGDVYRQGTTPPIWHLTDK [D34I] yielded an abundance fitness of -0.422 ± 0.13.
MAEIKEKICDYLFNVSDSSALNLAKNIGLTKARPINAVLIDMERQGDVYRQGTTPPIWHLTDK [D34P] showed an abundance fitness of -0.541 ± 0.073.
MAEIKEKICDYLFNVSDSSALNLAKNIGLTKARWINAVLIDMERQGDVYRQGTTPPIWHLTDK [D34W] gave an abundance fitness of -0.984 ± 0.12.
MAEIKEKICDYLFNVSDSSALNLAKNIGLTKARYINAVLIDMERQGDVYRQGTTPPIWHLTDK [D34Y] showed an abundance fitness of -0.694 ± 0.11.
MAEIKEKICDYLFNVSDSSALNLAKNIGLTKARDSNAVLIDMERQGDVYRQGTTPPIWHLTDK [I35S] gave an abundance fitness of -0.343 ± 0.046.
In the case of MAEIKEKICDYLFNVSDSSALNLAKNIGLTKARDPNAVLIDMERQGDVYRQGTTPPIWHLTDK [I35P], the abundance fitness is reported as -0.257 ± 0.061.
MAEIKEKICDYLFNVSDSSALNLAKNIGLTKARDYNAVLIDMERQGDVYRQGTTPPIWHLTDK [I35Y] gave an abundance fitness of -0.743 ± 0.091.
MAEIKEKICDYLFNVSDSSALNLAKNIGLTKARDWNAVLIDMERQGDVYRQGTTPPIWHLTDK [I35W] gave an abundance fitness of -1.1 ± 0.38.
With MAEIKEKICDYLFNVSDSSALNLAKNIGLTKARDDNAVLIDMERQGDVYRQGTTPPIWHLTDK [I35D] the abundance fitness was -0.225 ± 0.1.
In the case of MAEIKEKICDYLFNVSDSSALNLAKNIGLTKARDFNAVLIDMERQGDVYRQGTTPPIWHLTDK [I35F], the abundance fitness is reported as -0.681 ± 0.088.
MAEIKEKICDYLFNVSDSSALNLAKNIGLTKARDKNAVLIDMERQGDVYRQGTTPPIWHLTDK [I35K] gave an abundance fitness of -0.323 ± 0.22.
Variant MAEIKEKICDYLFNVSDSSALNLAKNIGLTKARDMNAVLIDMERQGDVYRQGTTPPIWHLTDK [I35M] has an abundance fitness of -0.523 ± 0.075.
MAEIKEKICDYLFNVSDSSALNLAKNIGLTKARDVNAVLIDMERQGDVYRQGTTPPIWHLTDK [I35V] gave an abundance fitness of -0.034 ± 0.045.
In the case of MAEIKEKICDYLFNVSDSSALNLAKNIGLTKARDHNAVLIDMERQGDVYRQGTTPPIWHLTDK [I35H], the abundance fitness is reported as -0.556 ± 0.073.
MAEIKEKICDYLFNVSDSSALNLAKNIGLTKARDANAVLIDMERQGDVYRQGTTPPIWHLTDK [I35A] showed an abundance fitness of -0.326 ± 0.048.
For MAEIKEKICDYLFNVSDSSALNLAKNIGLTKARDLNAVLIDMERQGDVYRQGTTPPIWHLTDK [I35L], the abundance fitness was -0.279 ± 0.058.
Work on MAEIKEKICDYLFNVSDSSALNLAKNIGLTKARDTNAVLIDMERQGDVYRQGTTPPIWHLTDK [I35T] yielded an abundance fitness of -0.217 ± 0.075.
With MAEIKEKICDYLFNVSDSSALNLAKNIGLTKARDGNAVLIDMERQGDVYRQGTTPPIWHLTDK [I35G] the abundance fitness was -0.627 ± 0.075.
In the case of MAEIKEKICDYLFNVSDSSALNLAKNIGLTKARDCNAVLIDMERQGDVYRQGTTPPIWHLTDK [I35C], the abundance fitness is reported as -0.348 ± 0.056.
Variant MAEIKEKICDYLFNVSDSSALNLAKNIGLTKARDQNAVLIDMERQGDVYRQGTTPPIWHLTDK [I35Q] has an abundance fitness of -0.348 ± 0.13.
MAEIKEKICDYLFNVSDSSALNLAKNIGLTKARDIDAVLIDMERQGDVYRQGTTPPIWHLTDK [N36D] gave an abundance fitness of 0.131 ± 0.091.
Work on MAEIKEKICDYLFNVSDSSALNLAKNIGLTKARDIIAVLIDMERQGDVYRQGTTPPIWHLTDK [N36I] yielded an abundance fitness of -0.438 ± 0.11.
MAEIKEKICDYLFNVSDSSALNLAKNIGLTKARDIGAVLIDMERQGDVYRQGTTPPIWHLTDK [N36G] showed an abundance fitness of -0.366 ± 0.048.
For MAEIKEKICDYLFNVSDSSALNLAKNIGLTKARDISAVLIDMERQGDVYRQGTTPPIWHLTDK [N36S], the abundance fitness was -0.202 ± 0.054.
Work on MAEIKEKICDYLFNVSDSSALNLAKNIGLTKARDIPAVLIDMERQGDVYRQGTTPPIWHLTDK [N36P] yielded an abundance fitness of -0.49 ± 0.072.
For MAEIKEKICDYLFNVSDSSALNLAKNIGLTKARDIFAVLIDMERQGDVYRQGTTPPIWHLTDK [N36F], the abundance fitness was -0.455 ± 0.098.
In the case of MAEIKEKICDYLFNVSDSSALNLAKNIGLTKARDIKAVLIDMERQGDVYRQGTTPPIWHLTDK [N36K], the abundance fitness is reported as -0.098 ± 0.08.
Variant MAEIKEKICDYLFNVSDSSALNLAKNIGLTKARDIHAVLIDMERQGDVYRQGTTPPIWHLTDK [N36H] has an abundance fitness of 0.081 ± 0.064.
Variant MAEIKEKICDYLFNVSDSSALNLAKNIGLTKARDILAVLIDMERQGDVYRQGTTPPIWHLTDK [N36L] has an abundance fitness of -0.282 ± 0.049.
Work on MAEIKEKICDYLFNVSDSSALNLAKNIGLTKARDIMAVLIDMERQGDVYRQGTTPPIWHLTDK [N36M] yielded an abundance fitness of -0.184 ± 0.048.
Work on MAEIKEKICDYLFNVSDSSALNLAKNIGLTKARDIQAVLIDMERQGDVYRQGTTPPIWHLTDK [N36Q] yielded an abundance fitness of -0.156 ± 0.074.
In the case of MAEIKEKICDYLFNVSDSSALNLAKNIGLTKARDIRAVLIDMERQGDVYRQGTTPPIWHLTDK [N36R], the abundance fitness is reported as -0.38 ± 0.046.
MAEIKEKICDYLFNVSDSSALNLAKNIGLTKARDIAAVLIDMERQGDVYRQGTTPPIWHLTDK [N36A] gave an abundance fitness of -0.497 ± 0.072.
For MAEIKEKICDYLFNVSDSSALNLAKNIGLTKARDIEAVLIDMERQGDVYRQGTTPPIWHLTDK [N36E], the abundance fitness was 0.406 ± 0.055.
Variant MAEIKEKICDYLFNVSDSSALNLAKNIGLTKARDICAVLIDMERQGDVYRQGTTPPIWHLTDK [N36C] has an abundance fitness of -0.397 ± 0.081.
